Laboratory results from the Immune Epitope Database (IEDB).
Values belong to the sequence of their own block, whether it stands above or below them.

How the values were obtained:
HLA-A*01:01 = assay: IEDB peptide-MHC binding, purified MHC/competitive/radioactivity; filed as Kd, often an IC50 or EC50 that approximates it; ≥ and ≤ were set here for values at or beyond the usual limits of such assays
HLA-A*02:06 = assay: as above
HLA-A*68:02 = assay: as above
HLA-B*44:02 = assay: as above
HLA-B*44:03 = assay: as above
HLA-A*02:01 = assay: as above
HLA-B*15:01 = assay: IEDB peptide-MHC binding, purified MHC/competitive/fluorescence; filed as Kd, often an IC50 or EC50 that approximates it; ≥ and ≤ were set here for values at or beyond the usual limits of such assays; conditions: source organism: Human immunodeficiency virus 1
HLA-B*51:01 = assay: as above; conditions: source organism: Bacillus anthracis str. A0442
HLA-B*39:01 = assay: as above; conditions: source organism: Bacillus anthracis str. A0488
HLA-B*40:01 = assay: IEDB peptide-MHC binding, purified MHC/competitive/radioactivity; filed as Kd, often an IC50 or EC50 that approximates it; ≥ and ≤ were set here for values at or beyond the usual limits of such assays
HLA-A*26:01 [1] = assay: IEDB peptide-MHC binding, purified MHC/direct/fluorescence; filed as Kd, often an IC50 or EC50 that approximates it; ≥ and ≤ were set here for values at or beyond the usual limits of such assays; conditions: source organism: Vibrio vulnificus CMCP6
HLA-A*32:01 = assay: IEDB peptide-MHC binding, purified MHC/competitive/radioactivity; filed as Kd, often an IC50 or EC50 that approximates it; ≥ and ≤ were set here for values at or beyond the usual limits of such assays
HLA-A*26:01 [2] = assay: as above
HLA-A*29:02 = assay: as above
HLA-A*30:01 = assay: as above
HLA-A*30:02 = assay: as above
HLA-B*46:01 = assay: IEDB peptide-MHC binding, purified MHC/competitive/fluorescence; filed as Kd, often an IC50 or EC50 that approximates it; ≥ and ≤ were set here for values at or beyond the usual limits of such assays; conditions: source organism: Vibrio vulnificus CMCP6
HLA-A*02:02 = assay: IEDB peptide-MHC binding, purified MHC/competitive/radioactivity; filed as Kd, often an IC50 or EC50 that approximates it; ≥ and ≤ were set here for values at or beyond the usual limits of such assays
HLA-A*02:03 = assay: as above
[3] = source organism: Dengue virus 3 Singapore/8120/1995
[4] = source organism: Dengue virus 2 Jamaica/1409/1983
[5] = source organism: Dengue virus 1 Brazil/97-11/1997
[6] = source organism: Dengue virus 4 Philippines/H241/1956
[7] = source organism: Vaccinia virus WR
[8] = source organism: Mammarenavirus guanaritoense
[9] = source organism: Mammarenavirus brazilense
[10] = source organism: Mammarenavirus choriomeningitidis
[11] = source organism: HIV-1 M:B_ARV2/SF2

Sequence: LTAAVLLLV
Kd (HLA-A*01:01; [3]): 16700 nM | Kd (HLA-A*02:06; [3]): 120 nM | Kd (HLA-A*68:02; [3]): 1.36 nM

Sequence: LERAADVKW
Kd (HLA-B*44:02; [4]): 130 nM | Kd (HLA-B*44:03; [4]): 214 nM

Sequence: GLRDCTMLV
Kd (HLA-A*02:01; source organism: hepatitis C virus genotype 1a): 421 nM

Sequence: AVWDQYKDL
Kd (HLA-A*02:01; source organism: Lassa virus Josiah): 12500 nM

Sequence: MEDKTHVSSW
Kd (HLA-B*44:02; [5]): 82.3 nM | Kd (HLA-B*44:03; [5]): 111 nM

Kd (HLA-A*02:01; source organism: Homo sapiens): 6290 nM
Sequence: ITQLMPFGC

Sequence: ILGLNKIVRMY
Kd (HLA-B*15:01): ≥ 20000 nM

Sequence: EPINMFLFI
Kd (HLA-B*51:01): 465 nM

Sequence: FKWGKKIIL
Kd (HLA-B*39:01): 12.6 nM

Sequence: MSTYGWNLV
Kd (HLA-A*01:01; [4]): 8500 nM | Kd (HLA-A*68:02; [4]): 11.9 nM

Sequence: WELVDKERAL
Kd (HLA-B*40:01; [6]): 24 nM

Kd (HLA-A*02:01; source organism: Homo sapiens): ≥ 70300 nM | Kd (HLA-A*68:02; source organism: Homo sapiens): ≥ 65200 nM
Sequence: PLEGSEDRII

Sequence: QTDPLWQKY
Kd (HLA-A*26:01 [1]): 2780 nM

Sequence: ITHFCSFNI
Kd (HLA-A*32:01; [7]): ≥ 20900 nM

Kd (HLA-A*68:02; source organism: Homo sapiens): ≥ 60000 nM
Sequence: GLDLQPCIDL

Sequence: SVSGTFVAEF
Kd (HLA-A*01:01; [8]): ≥ 45200 nM | Kd (HLA-A*26:01 [2]; [8]): 3070 nM | Kd (HLA-A*29:02; [8]): 9060 nM | Kd (HLA-A*30:01; [8]): ≥ 40000 nM | Kd (HLA-A*30:02; [8]): 7910 nM | Kd (HLA-A*32:01; [8]): 4410 nM

Sequence: KEVSETQHG
Kd (HLA-B*44:02; source organism: Dengue virus 3 Martinique/1243/1999): 6770 nM

Sequence: GERKKLKPRW
Kd (HLA-B*44:02; [4]): 839 nM | Kd (HLA-B*44:03; [4]): 1450 nM

Kd (HLA-A*02:06; source organism: Homo sapiens): ≥ 68500 nM | Kd (HLA-A*68:02; source organism: Homo sapiens): 456 nM
Sequence: EMREQHDAQV

Sequence: ESAQPGLLSY
Kd (HLA-A*01:01; [9]): 69.8 nM | Kd (HLA-A*26:01 [2]; [9]): 14.3 nM | Kd (HLA-A*29:02; [9]): 3090 nM | Kd (HLA-A*30:01; [9]): ≥ 70400 nM | Kd (HLA-A*30:02; [9]): 1690 nM | Kd (HLA-A*32:01; [9]): ≥ 69900 nM

Sequence: TVIFQTVVI
Kd (HLA-A*32:01; [7]): 569 nM

Sequence: IETLMLLAL
Kd (HLA-B*40:01; [5]): 10.7 nM | Kd (HLA-B*44:02; [5]): 1340 nM

Sequence: LTAIANQAAI
Kd (HLA-A*01:01; [5]): 10200 nM | Kd (HLA-A*68:02; [5]): 22.9 nM

Sequence: ATMANEMGFL
Kd (HLA-A*68:02; [4]): 68.4 nM

Sequence: SSKNQTWQIE
Kd (HLA-A*32:01; [6]): ≥ 31600 nM

Sequence: GSLLHGLWPY
Kd (HLA-A*01:01; [9]): 496 nM | Kd (HLA-A*26:01 [2]; [9]): ≥ 27300 nM | Kd (HLA-A*29:02; [9]): 401 nM | Kd (HLA-A*30:01; [9]): 102 nM | Kd (HLA-A*30:02; [9]): 40.4 nM | Kd (HLA-A*32:01; [9]): 1110 nM

Sequence: RETACLGKSY
Kd (HLA-B*44:03; [5]): 70.3 nM

Sequence: EIFSMMVSSF
Kd (HLA-A*01:01; [10]): 7590 nM | Kd (HLA-A*26:01 [2]; [10]): 3.79 nM | Kd (HLA-A*29:02; [10]): 1370 nM | Kd (HLA-A*30:01; [10]): 940 nM | Kd (HLA-A*30:02; [10]): 13200 nM | Kd (HLA-A*32:01; [10]): 1290 nM

Sequence: ITPRSPSVEV
Kd (HLA-A*68:02; [6]): 575 nM

Sequence: TEAKMLLDNI
Kd (HLA-B*44:03; [5]): 617 nM

Sequence: FAIGDWEPY
Kd (HLA-B*46:01): 74.1 nM

Sequence: FLGKIWPSYK
Kd (HLA-A*02:01; [11]): 89.9 nM | Kd (HLA-A*02:02; [11]): 449 nM | Kd (HLA-A*02:03; [11]): 448 nM | Kd (HLA-A*02:06; [11]): 3010 nM | Kd (HLA-A*68:02; [11]): ≥ 41200 nM

Sequence: QIHLAIMAV
Kd (HLA-A*68:02; [6]): 287 nM

Sequence: KINEVVEIF
Kd (HLA-A*32:01; [7]): 19.3 nM

Sequence: ETQHGTVLV
Kd (HLA-A*26:01 [2]; [5]): 4910 nM | Kd (HLA-A*68:02; [5]): 2.52 nM

Kd (HLA-A*02:01; source organism: Homo sapiens): ≥ 20800 nM | Kd (HLA-A*02:03; source organism: Homo sapiens): 81.3 nM | Kd (HLA-A*68:02; source organism: Homo sapiens): 284 nM
Sequence: EMKTQLEEL

Sequence: MMLVPLITV
Kd (HLA-A*02:02; [7]): 1020 nM | Kd (HLA-A*02:03; [7]): ≥ 52100 nM | Kd (HLA-A*02:06; [7]): ≥ 77100 nM | Kd (HLA-A*68:02; [7]): 5160 nM
